{
  "source": "patent US20110263485A1",
  "about": "“Bifunctional Griffithsin Analogs” (priority 2009, published 2011)",
  "test_in_all_cases": "cell-based or functional assay",
  "key": {"[1]": {"target": "HIV-1 HXB2 env (X4) (gp120 and gp41) (HIV-1 strain HXB2) (UniProt P04578)"}, "[2]": {"target": "HIV-1 91US005 (R5) env (gp120 and gp41) (HIV-1 strain 91US005)"}, "[3]": {"target": "HIV-1 JRFL (R5) env (gp120 and gp41) (HIV-1 strain JRFL)"}, "[4]": {"target": "HIV-1 IIIB (X4) env (gp120 and gp41) (HIV-1 strain IIIB)"}, "[5]": {"target": "HIV-1 92HT599 (CXCR4-tropic) env (gp120 and gp41) (HIV-1 strain 92HT599)"}, "[6]": {"target": "HIV-1 NL4-3 (CXCR4-tropic) env (gp120 and gp41) (HIV-1 strain NL4-3)"}, "[7]": {"target": "HIV-1 Ba-L (R5) env (gp120 and gp41) (HIV-1 strain Ba-L)"}, "[8]": {"target": "HIV-1 ADA (R5) env (gp120 and gp41) (HIV-1 strain ADA)"}},
  "data": [
    {"substance": "Griffithsin (from UniProt P84801 1-121)", "values": [
      {"measurement": "X4 fusion assay IC50", "setting": "[1]", "result": 0.468, "unit": "nM"},
      {"measurement": "Inhibition of HIV virus, 91US005 (R5) in PBMC, IC50", "setting": "[2]", "result": 0.16, "unit": "nM"},
      {"measurement": "Inhibition of HIV virus, 91US005 (R5) in PBMC, IC90", "setting": "[2]", "result": 0.51, "unit": "nM"},
      {"measurement": "Inhibition of HIV-1 Replication in PBMCs, 91US005 (CCR5-tropic), IC50", "setting": "[2]", "result": 0.28, "unit": "nM"},
      {"measurement": "Inhibition of HIV-1 Replication in PBMCs, 91US005 (CCR5-tropic), IC90", "setting": "[2]", "result": 0.76, "unit": "nM"},
      {"measurement": "Inhibition of HIV single round pseudovirus in TZM-bl cells, JRFL (R5), IC50", "setting": "[3]", "result": 0.035, "unit": "nM"},
      {"measurement": "Inhibition of HIV single round pseudovirus in TZM-bl cells, JRFL (R5), IC90", "setting": "[3]", "result": 1.25, "unit": "nM"},
      {"measurement": "Inhibition of HIV virus, IIIB (X4) in MAGI cells, IC50", "setting": "[4]", "result": 0.145, "unit": "nM"},
      {"measurement": "Inhibition of HIV virus, IIIB (X4) in MAGI cells, IC90", "setting": "[4]", "result": 0.89, "unit": "nM"},
      {"measurement": "Inhibition of HIV-1 Replication in PBMCs, 92HT599 (CXCR4-tropic), IC50", "setting": "[5]", "result": 0.74, "unit": "nM"},
      {"measurement": "Inhibition of HIV-1 Replication in PBMCs, 92HT599 (CXCR4-tropic), IC90", "setting": "[5]", "result": 1.86, "unit": "nM"},
      {"measurement": "Inhibition of HIV-1 Replication in PBMCs, NL4-3 (CXCR4-tropic), IC50", "setting": "[6]", "result": 0.17, "unit": "nM"},
      {"measurement": "Inhibition of HIV-1 Replication in PBMCs, NL4-3 (CXCR4-tropic), IC90", "setting": "[6]", "result": 0.725, "unit": "nM"},
      {"measurement": "Inhibition of HIV virus, Ba-L (R5) in MAGI cells, IC50", "setting": "[7]", "result": 0.04, "unit": "nM"},
      {"measurement": "Inhibition of HIV virus, Ba-L (R5) in MAGI cells, IC90", "setting": "[7]", "result": 0.515, "unit": "nM"},
      {"measurement": "Inhibition of HIV virus, Ba-L (R5) in PBMC, IC50", "setting": "[7]", "result": 0.28, "unit": "nM"},
      {"measurement": "Inhibition of HIV virus, Ba-L (R5) in PBMC, IC90", "setting": "[7]", "result": 0.76, "unit": "nM"},
      {"measurement": "Inhibition of HIV single round pseudovirus in TZM-bl cells, ADA (R5), IC50", "setting": "[8]", "result": 0.008, "unit": "nM"},
      {"measurement": "Inhibition of HIV single round pseudovirus in TZM-bl cells, ADA (R5), IC90", "setting": "[8]", "result": 0.164, "unit": "nM"},
      {"measurement": "Inhibition of HIV virus, ADA (R5) in MAGI cells, IC50", "setting": "[8]", "result": 0.03, "unit": "nM"},
      {"measurement": "Inhibition of HIV virus, ADA (R5) in MAGI cells, IC90", "setting": "[8]", "result": 0.45, "unit": "nM"},
      {"measurement": "R5 fusion assay IC50", "setting": "[8]", "result": 1.3, "unit": "nM"},
      {"measurement": "R5 fusion with competition IC50", "setting": "[8]", "result": 1.73, "unit": "nM"},
      {"measurement": "R5 fusion with wash-out on ADA cells IC50", "setting": "[8]", "result": 4.28, "unit": "nM"},
      {"measurement": "R5 fusion with wash-out on P5L cells IC50", "setting": "[8]", "result": 7.34, "unit": "nM"}
    ]}
  ]
}
